Assay results: paper PMC6345808, “Molecular structure and function of myelin protein P0 in membrane stacking” (Scientific Reports, 2019)

Columns and labels:
[1] = molecular target: the molecule itself; experiment: SEC-MALS; full-length P0 in 0.1% DPC micelles, Superdex 200, 250 mM sodium phosphate pH 8.0, 1 mM EDTA; protein conjugate analysis
[2] = molecular target: the molecule itself; experiment: SEC-MALS; full-length P0 in 0.1% LDAO micelles, Superdex 200, 250 mM sodium phosphate pH 8.0, 1 mM EDTA; protein conjugate analysis

B1: full-length myelin protein zero (P0) from bovine peripheral myelin (natural protein, UniProt P10522 29-248, looked up)
chain: AIVVYTDKEVHGAVGSQVTLYCSFWSSEWVSDDLSFTWRYQPEGGRDAISIFHYAKGQPYIDEVGTFKERIQWVGDPHRKDGSIVIHNLDYGDNGTFTCDVKNPPDIVGKTSQVTLYVFEKVPTRYGVVLGAVIGGVLGVVLLALLLFYLIRYCWLRRQAALQRRLSAMEKGKLHKTAKDASKRGRQTPVLYAMLDHSRSTKAASEKKTKGLGESRKDKK
modifications: N-linked glycan structures belonging to hybrid types
notes: myelin protein zero (P0, MPZ), bovine, native protein from the raft fraction of peripheral myelin; Oligomeric state depended on detergent: tetramer in DPC, dimer in LDAO; also called MPZ; full-length P0
[1]
  stoichiometry N: 4
[2]
  stoichiometry N: 2
